Experimental data taken from patent US20060228299A1 (University of Texas, published 2006).

Biological target: T1, murine β2GPI (in normal mouse serum) (mouse, UniProt Q01339 20-345)
T1 construct: mature; also called mouse β2GPI
T1 sequence (looked up): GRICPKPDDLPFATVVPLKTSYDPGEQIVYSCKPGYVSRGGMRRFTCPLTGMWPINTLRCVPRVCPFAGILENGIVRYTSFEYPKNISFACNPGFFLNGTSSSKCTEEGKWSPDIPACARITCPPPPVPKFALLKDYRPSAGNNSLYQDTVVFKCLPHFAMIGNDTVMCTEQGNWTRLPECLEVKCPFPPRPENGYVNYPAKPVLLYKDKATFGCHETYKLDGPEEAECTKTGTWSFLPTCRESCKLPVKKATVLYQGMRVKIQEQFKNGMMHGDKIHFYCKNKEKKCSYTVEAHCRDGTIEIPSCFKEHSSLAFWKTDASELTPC
Assay: immunoblot of 10% normal mouse serum

binding result: no binding (tested: 1 µg/ml)
B1: 3G4 mouse monoclonal antibody as used in Example XXX (converted to mouse IgG2a isotype, produced in NS0 cells) (antibody, V domains shown)
VH: EVQLQQSGPELEKPGASVKLSCKASGYSFTGYNMNWVKQSHGKSLEWIGHIDPYYGDTSYNQKFRGKATLTVDKSSSTAYMQLKSLTSEDSAVYYCVKGGYYGHWYFDVWGAGTTVTVSS
VL: DIQMTQSPSSLSASLGERVSLTCRASQDIGSSLNWLQQGPDGTIKRLIYATSSLDSGVPKRFSGSRSGSDYSLTISSLESEDFVDYYCLQYVSSPPTFGAGTKLELKR
notes: It was purified from serum-free media (SFM) or serum-containing media (SCM); also called 3G4 SFM; 3G4 SCM
